The values that follow are results of earlier work, collected in publication PMC10878502.

The target in series [1] is ASPP2 (Homo sapiens) (UniProt Q13625).
For series [2], the target named is ASPP1 (Homo sapiens) (UniProt Q96KQ4).
For series [3], the target named is iASPP ANK-SH3 (Homo sapiens) (UniProt Q8WUF5).
Series [4] has as its target ASPP2 ANK-SH3 (Homo sapiens) (UniProt Q13625).

Chain of ASPP2 (Homo sapiens) (Q13625 whole entry): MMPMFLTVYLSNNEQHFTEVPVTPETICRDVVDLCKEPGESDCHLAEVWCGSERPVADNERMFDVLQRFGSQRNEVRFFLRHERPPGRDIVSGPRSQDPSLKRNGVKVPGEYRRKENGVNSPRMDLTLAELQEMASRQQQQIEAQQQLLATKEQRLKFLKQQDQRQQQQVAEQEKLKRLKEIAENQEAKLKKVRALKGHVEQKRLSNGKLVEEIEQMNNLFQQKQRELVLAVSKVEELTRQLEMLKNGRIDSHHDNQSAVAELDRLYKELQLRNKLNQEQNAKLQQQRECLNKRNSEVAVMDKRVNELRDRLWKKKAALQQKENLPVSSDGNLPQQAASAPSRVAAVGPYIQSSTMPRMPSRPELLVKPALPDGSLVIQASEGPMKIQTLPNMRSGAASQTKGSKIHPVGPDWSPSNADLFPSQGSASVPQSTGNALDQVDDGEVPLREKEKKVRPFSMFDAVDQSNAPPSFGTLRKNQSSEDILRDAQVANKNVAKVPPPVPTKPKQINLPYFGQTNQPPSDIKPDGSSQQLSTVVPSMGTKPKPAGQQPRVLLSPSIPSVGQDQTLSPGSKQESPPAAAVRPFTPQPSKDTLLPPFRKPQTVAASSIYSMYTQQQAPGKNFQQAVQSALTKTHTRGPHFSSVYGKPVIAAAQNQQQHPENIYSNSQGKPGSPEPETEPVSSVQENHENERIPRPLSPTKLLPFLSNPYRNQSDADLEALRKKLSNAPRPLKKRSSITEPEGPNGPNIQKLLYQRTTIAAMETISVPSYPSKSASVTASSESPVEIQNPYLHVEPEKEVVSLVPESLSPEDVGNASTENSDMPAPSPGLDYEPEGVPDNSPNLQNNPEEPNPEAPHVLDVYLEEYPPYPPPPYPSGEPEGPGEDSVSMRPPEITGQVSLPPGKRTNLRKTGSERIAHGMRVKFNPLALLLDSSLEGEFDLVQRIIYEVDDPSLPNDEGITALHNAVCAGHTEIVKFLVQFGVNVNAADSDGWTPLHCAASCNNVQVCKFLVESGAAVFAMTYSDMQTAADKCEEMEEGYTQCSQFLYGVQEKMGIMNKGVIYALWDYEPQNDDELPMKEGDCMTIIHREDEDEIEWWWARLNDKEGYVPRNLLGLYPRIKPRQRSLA
Chain of iASPP ANK-SH3 (Homo sapiens) (Q8WUF5 608-828): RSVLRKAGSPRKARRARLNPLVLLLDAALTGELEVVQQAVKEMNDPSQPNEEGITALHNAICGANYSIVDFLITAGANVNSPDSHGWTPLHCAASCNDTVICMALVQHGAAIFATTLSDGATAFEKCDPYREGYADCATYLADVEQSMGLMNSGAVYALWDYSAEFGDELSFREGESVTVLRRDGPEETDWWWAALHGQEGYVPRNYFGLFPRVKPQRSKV
Chain of ASPP2 ANK-SH3 (Homo sapiens) (Q13625 892-1128): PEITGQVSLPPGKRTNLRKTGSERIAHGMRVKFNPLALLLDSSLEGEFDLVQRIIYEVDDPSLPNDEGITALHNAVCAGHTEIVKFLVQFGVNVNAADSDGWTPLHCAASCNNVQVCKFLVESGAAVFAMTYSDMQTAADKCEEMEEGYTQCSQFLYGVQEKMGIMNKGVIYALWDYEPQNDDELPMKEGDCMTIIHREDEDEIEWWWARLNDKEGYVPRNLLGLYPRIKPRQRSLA
Chain of ASPP1 (Homo sapiens) (Q96KQ4 whole entry): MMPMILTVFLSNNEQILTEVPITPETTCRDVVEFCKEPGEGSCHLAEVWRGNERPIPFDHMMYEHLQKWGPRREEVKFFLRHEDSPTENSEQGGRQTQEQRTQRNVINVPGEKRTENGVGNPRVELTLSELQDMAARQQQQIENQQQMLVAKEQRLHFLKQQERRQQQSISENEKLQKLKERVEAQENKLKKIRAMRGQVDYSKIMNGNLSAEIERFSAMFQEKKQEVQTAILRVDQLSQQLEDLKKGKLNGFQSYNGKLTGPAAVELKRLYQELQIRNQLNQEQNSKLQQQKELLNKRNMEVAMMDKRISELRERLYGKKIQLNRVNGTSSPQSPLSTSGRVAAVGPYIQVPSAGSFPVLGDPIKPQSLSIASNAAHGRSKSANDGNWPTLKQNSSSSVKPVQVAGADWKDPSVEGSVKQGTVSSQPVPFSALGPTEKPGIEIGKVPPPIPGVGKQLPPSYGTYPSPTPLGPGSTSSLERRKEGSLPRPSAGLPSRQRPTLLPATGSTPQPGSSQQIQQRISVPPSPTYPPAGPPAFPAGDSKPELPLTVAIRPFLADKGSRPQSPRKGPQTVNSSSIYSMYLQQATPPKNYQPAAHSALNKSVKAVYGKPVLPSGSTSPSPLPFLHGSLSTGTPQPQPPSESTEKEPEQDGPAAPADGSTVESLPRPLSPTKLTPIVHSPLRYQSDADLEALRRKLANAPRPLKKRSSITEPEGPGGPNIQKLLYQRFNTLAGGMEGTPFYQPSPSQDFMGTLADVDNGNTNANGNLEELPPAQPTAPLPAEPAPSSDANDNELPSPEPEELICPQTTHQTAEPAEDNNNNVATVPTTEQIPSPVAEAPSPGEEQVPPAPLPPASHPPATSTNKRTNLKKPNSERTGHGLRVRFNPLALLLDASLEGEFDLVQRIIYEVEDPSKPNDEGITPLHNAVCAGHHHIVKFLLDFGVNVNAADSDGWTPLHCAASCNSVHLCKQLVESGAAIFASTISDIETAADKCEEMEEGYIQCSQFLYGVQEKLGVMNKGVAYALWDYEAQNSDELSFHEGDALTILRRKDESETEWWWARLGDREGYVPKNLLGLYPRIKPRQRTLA

For orientation: Kd means the free concentration of one partner at which half of the binding sites on the other are occupied at equilibrium, for simple one-to-one binding. In the case of p53 (from UniProt P04637), the Kd in series [1] is 5000 nM; in series [2], 500 nM.
On to p53 DBD (from UniProt P04637), for which the dissociation constant Kd in series [3] is 23.3 nM; in series [4], 26.4 nM.
